# T1: ICOS (Homo sapiens (Human), UniProt Q9Y6W8 21-140)
# T1 construct: also called CD28 family member ICOS
# T1 sequence: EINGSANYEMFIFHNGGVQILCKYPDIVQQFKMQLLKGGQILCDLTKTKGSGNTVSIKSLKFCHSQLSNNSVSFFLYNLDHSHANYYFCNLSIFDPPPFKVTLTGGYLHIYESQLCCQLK
# T2: CTLA-4 (Homo sapiens (Human), UniProt P16410 36-161)
# T2 construct: also called CD28 family member CTLA-4
# T2 sequence: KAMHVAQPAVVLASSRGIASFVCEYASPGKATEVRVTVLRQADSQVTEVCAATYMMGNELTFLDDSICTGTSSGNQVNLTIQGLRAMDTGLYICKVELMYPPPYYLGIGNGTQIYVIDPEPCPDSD
# T3: mouse PD-1-Fc (mouse, UniProt Q02242 25-169)
# T3 construct: extracellular domain; not shown: Fc part
# T3 sequence (looked up): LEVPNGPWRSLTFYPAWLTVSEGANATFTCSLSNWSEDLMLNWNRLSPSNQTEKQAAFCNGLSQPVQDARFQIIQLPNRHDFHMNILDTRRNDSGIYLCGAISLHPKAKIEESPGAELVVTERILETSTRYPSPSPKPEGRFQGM
# Experiments:
# ICOS [1] = biological target: T1, ICOS; assay: ELISA on coated ICOS, HRP anti-human kappa
# Method: (§1) The specificity of anti-PD-1 antibodies was examined by detecting their binding to CD28 family members ICOS, CTLA-4 and CD28 (R&D System) using standard ELISA. […] Finally, TMB was added as a substrate for HRP, and the absorbance was measured at 450 nm.
# CD28 [2] = biological target: T4, CD28 (Homo sapiens (Human), UniProt P10747 19-152); assay: ELISA on coated CD28, HRP anti-human kappa
# T4 construct: also called CD28 family member CD28
# Method: as §1
# CTLA-4 [3] = biological target: T2, CTLA-4; assay: ELISA on coated CTLA-4, HRP anti-human kappa
# Method: as §1
# [4] = biological target: T5, PD-1-Fc fusion protein (extracellular region of human PD-1 fused to human Fc) (human); assay: ELISA on coated PD-1-Fc, HRP anti-human kappa
# T5 construct: unlabelled when coated on plates or immobilized; also called human PD-1-Fc; PD-1-Fc-biotin
# [5] = biological target: T5, PD-1-Fc fusion protein (extracellular …); assay: ELISA on coated human PD-1-Fc, HRP anti-human kappa
# Method: (§2) Finally, TMB was added as a substrate for HRP, and the absorbance was measured at 450 nm.
# mouse PD-1-Fc [6] = biological target: T3, mouse PD-1-Fc; assay: ELISA on coated mouse PD-1-Fc, HRP anti-human kappa
# Method: as §2
# [7] = biological target: T6, Cynomolgus monkey PD-1-Fc (Cynomolgus monkey, UniProt B0LAJ3 25-170); assay: ELISA on coated Cynomolgus monkey PD-1-Fc, HRP anti-human kappa
# T6 construct: not shown: The Fc part and any linker
# Method: as §2
# [8] = biological target: T5, PD-1-Fc fusion protein (extracellular …); assay: solution-equilibrium ELISA (Holash method): antibody preincubated with PD-1-Fc, free antibody captured on coated PD-1-Fc
# Method: as §2
# [9] = biological target: T7, full-length human PD-1 expressed on transfected CHO-K1 cells (CHO/PD-1) (human, UniProt Q15116 25-288); assay: flow cytometry blocking assay, 10 ug/ml antibody with biotin-PD-L1-Fc (blocked ligand) on CHO/PD-1 cells, Avidin-PE
# T7 construct: also called PD-1-transfected CHO cells; cell surface PD-1
# Method: Then the mixture was added to the CHO/PD-1 cells. After 1 hour, the cells were washed and binding of was detected with Avidin-PE. Flow cytometric analysis was performed using a FACScan flow cytometry (Becton Dickinson).
# ICOS [10] = biological target: T1, ICOS; assay: ELISA on coated ICOS, HRP anti-mouse kappa
# Method: as §1
# CD28 [11] = biological target: T4, CD28; assay: ELISA on coated CD28, HRP anti-mouse kappa
# Method: as §1
# CTLA-4 [12] = biological target: T2, CTLA-4; assay: ELISA on coated CTLA-4, HRP anti-mouse kappa
# Method: as §1
# [13] = biological target: T5, PD-1-Fc fusion protein (extracellular …); assay: ELISA on coated PD-1-Fc, HRP anti-mouse kappa
# [14] = biological target: T5, PD-1-Fc fusion protein (extracellular …); assay: ELISA on coated human PD-1-Fc, HRP anti-mouse kappa
# Method: as §2
# mouse PD-1-Fc [15] = biological target: T3, mouse PD-1-Fc; assay: ELISA on coated mouse PD-1-Fc, HRP anti-mouse kappa
# Method: as §2
# [16] = biological target: T6, Cynomolgus monkey PD-1-Fc; assay: ELISA on coated Cynomolgus monkey PD-1-Fc, HRP anti-mouse kappa
# Method: as §2
# [17] = biological target: T5, PD-1-Fc fusion protein (extracellular …); assay: SPR (Biacore), PD-1-Fc immobilized, antibody as analyte
# Method: (§3) Affinity constants were calculated from the ratio of the rate constants.
# [18] = biological target: T5, PD-1-Fc fusion protein (extracellular …); assay: ELISA on coated PD-1-Fc, HRP anti-human kappa; remark: listed apart in the source
# [19] = biological target: T7, full-length human PD-1 expressed on …; assay: flow cytometry on CHO/PD-1 cells, FITC anti-human antibody
# Method: After 1 hour incubation, the cells were washed and an FITC labelled anti human antibody was incubated for 1 hour. Then the cells were washed and the flow cytometric analysis was performed using a FACScan flow cytometry.
# [20] = biological target: T5, PD-1-Fc fusion protein (extracellular …); assay: SPR (Biacore), ligand PD1-Fc-biotin, sample hu67D9, 25 C, fit 1:1 Binding
# Method: as §3
# [21] = biological target: T5, PD-1-Fc fusion protein (extracellular …); assay: competition ELISA on coated PD-1-Fc, competitor biotin labelled Nivolumab, HRP-avidin
# [22] = biological target: T5, PD-1-Fc fusion protein (extracellular …); assay: competition ELISA on coated PD-1-Fc, blocked ligand biotin labelled PDL1-Fc, HRP-avidin
# [23] = biological target: T7, full-length human PD-1 expressed on …; assay: flow cytometry competition on CHO/PD-1 cells, competitor FITC labelled Nivolumab at a sub-saturating concentration
binding result (ICOS [1]),binding result (CD28 [2]),binding result (CTLA-4 [3]),EC50 (read off the curve) [4] [ng/mL],EC50 (read off the curve) [5] [ng/mL],binding result (mouse PD-1-Fc [6]),EC50 (read off the curve) [7] [ng/mL],Kd [8] [pM],binding result [9],Binder,also measured
no binding (tested: 1000 ng/ml),no binding (tested: 1000 ng/ml),no binding (tested: 1000 ng/ml),~10,~10,no binding (tested: 1000 ng/ml),~10,16.9,binds,"67D9 chimeric antibody (c67D9) (antibody, human IgG4 S228P, kappa, V domains shown, Human kappa light chain (detected with anti-human kappa); also called chimeric Ab) VH: EVILVESGGGLVKPGGSLKVSCAASGFTFSTYGMSWVRQTPEKRLEWVATISGGGRDTYYPDTVKGRFTISRDNAKNTLYLQMSSLRSEDTALYYCARQDYGNYVWFAYWGQGTLVTVSA VL: not shown",–
–,–,–,–,–,–,–,12.4,binds,"67D9 (mouse anti-PD-1 monoclonal antibody) (antibody, mouse IgG2a, V domains shown, Purified from hybridoma supernatant by Protein G; also called mouse Ab) VH: EVILVESGGGLVKPGGSLKVSCAASGFTFSTYGMSWVRQTPEKRLEWVATISGGGRDTYYPDTVKGRFTISRDNAKNTLYLQMSSLRSEDTALYYCARQDYGNYVWFAYWGQGTLVTVSA VL: not shown",binding result (ICOS [10]): no binding (tested: 1000 ng/ml); binding result (CD28 [11]): no binding (tested: 1000 ng/ml); binding result (CTLA-4 [12]): no binding (tested: 1000 ng/ml); EC50 (read off the curve) [13]: ~10 ng/mL; EC50 (read off the curve) [14]: ~10 ng/mL; binding result (mouse PD-1-Fc [15]): no binding (tested: 1000 ng/ml); EC50 (read off the curve) [16]: ~10 ng/mL
no binding (tested: 1000 ng/ml),no binding (tested: 1000 ng/ml),no binding (tested: 1000 ng/ml),~10,~10,no binding (tested: 1000 ng/ml),~10,15.4,–,"anti-PD-1 humanized antibody hu67D9 (antibody, human IgG4 S228P, kappa, V domains shown, also called humanized 67D9; humanized Ab) VH: EVQLVESGGGLVQPGGSLRLSCAASGFTFSTYGMSWVRQAPGKGLEWVATISGGGRDTYYPDTVKGRFTISRDNSKNTLYLQMSSLRAEDTAVYYCARQDYGNYVWFAYWGQGTLVTVSS VL: DIVLTQSPASLAVSPGQRATISCRASESVDSYGISFMHWFQQKPGQPPQLLIYSTSNRGSGVPARFSGSGSGTDFSLTINPVEADDTANYFCQQSQEVPWTFGQGTKVEIKR",Kd [17]: 3.21 pM; EC50 (read off the curve) [18]: ~10 ng/mL; EC50 (read off the curve) [19]: ~20 ng/mL; koff [20]: 2.77e-05 s⁻¹; kon [20]: 8.63e+06 M⁻¹ s⁻¹; IC50 (read off the curve) [21]: ~5000 ng/mL; IC50 (read off the curve) [22]: ~2 ng/mL; IC50 (read off the curve) [23]: ~5000 ng/mL
